According to article PMC2642969 (Molecular cell, 2008):
Substitutions are numbered along the chain they refer to. In names and notes the source's numbering stands. Where two headings read alike, the source gives them in different places. Values belong to the binder of their own block, whether it stands above or below them.

Tests used:
[1] = molecular target: T1, FLAG-dKDM4A (recombinant, Sf21) (Drosophila melanogaster, UniProt Q9V333 1-495); assay: co-IP
T1 sequence (looked up): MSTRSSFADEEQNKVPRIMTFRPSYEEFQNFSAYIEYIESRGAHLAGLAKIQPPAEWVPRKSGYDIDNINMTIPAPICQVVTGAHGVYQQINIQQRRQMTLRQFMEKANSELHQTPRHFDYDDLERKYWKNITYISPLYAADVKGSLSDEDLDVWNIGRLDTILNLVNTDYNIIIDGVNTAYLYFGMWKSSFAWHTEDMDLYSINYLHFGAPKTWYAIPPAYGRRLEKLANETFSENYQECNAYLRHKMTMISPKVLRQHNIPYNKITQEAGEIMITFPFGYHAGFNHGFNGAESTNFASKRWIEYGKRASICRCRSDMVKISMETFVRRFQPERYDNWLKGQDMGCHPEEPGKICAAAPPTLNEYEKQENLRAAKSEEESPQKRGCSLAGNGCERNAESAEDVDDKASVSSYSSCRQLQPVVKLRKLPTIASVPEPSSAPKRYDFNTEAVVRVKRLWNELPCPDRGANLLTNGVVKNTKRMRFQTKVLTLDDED

[2] = molecular target: T1, FLAG-dKDM4A (recombinant, Sf21); assay: co-IP; remark: listed apart in the source

- binding result [1]: binds
B1: HA-HP1a (recombinant, full-length) (natural protein, Drosophila melanogaster, UniProt P05205 1-206, looked up)
chain: MGKKIDNPESSAKVSDAEEEEEEYAVEKIIDRRVRKGKVEYYLKWKGYPETENTWEPENNLDCQDLIQQYEASRKDEEKSAASKKDRPSSSAKAKETQGRASSSTSTASKRKSEEPTAPSGNKSKRTTDAEQDTIPVSGSTGFDRGLEAEKILGASDNNGRLTFLIQFKGVDQAEMVPSSVANEKIPRMVIHFYEERLSWYSDNED

- binding result [2]: binds
B2: HA-HP1a-V26M (natural protein, Drosophila melanogaster, UniProt P05205 1-206, looked up)
chain: B1 chain with V26M
